Biological target: Pol epsilon WT (holoenzyme) (Saccharomyces cerevisiae, UniProt P21951;P24482;P27344;Q04603 1-2222;1-689;1-201;1-196)
Assay: EMSA

Sequence of Pol epsilon WT (holoenzyme) (P21951 whole entry, chain 1 of 4): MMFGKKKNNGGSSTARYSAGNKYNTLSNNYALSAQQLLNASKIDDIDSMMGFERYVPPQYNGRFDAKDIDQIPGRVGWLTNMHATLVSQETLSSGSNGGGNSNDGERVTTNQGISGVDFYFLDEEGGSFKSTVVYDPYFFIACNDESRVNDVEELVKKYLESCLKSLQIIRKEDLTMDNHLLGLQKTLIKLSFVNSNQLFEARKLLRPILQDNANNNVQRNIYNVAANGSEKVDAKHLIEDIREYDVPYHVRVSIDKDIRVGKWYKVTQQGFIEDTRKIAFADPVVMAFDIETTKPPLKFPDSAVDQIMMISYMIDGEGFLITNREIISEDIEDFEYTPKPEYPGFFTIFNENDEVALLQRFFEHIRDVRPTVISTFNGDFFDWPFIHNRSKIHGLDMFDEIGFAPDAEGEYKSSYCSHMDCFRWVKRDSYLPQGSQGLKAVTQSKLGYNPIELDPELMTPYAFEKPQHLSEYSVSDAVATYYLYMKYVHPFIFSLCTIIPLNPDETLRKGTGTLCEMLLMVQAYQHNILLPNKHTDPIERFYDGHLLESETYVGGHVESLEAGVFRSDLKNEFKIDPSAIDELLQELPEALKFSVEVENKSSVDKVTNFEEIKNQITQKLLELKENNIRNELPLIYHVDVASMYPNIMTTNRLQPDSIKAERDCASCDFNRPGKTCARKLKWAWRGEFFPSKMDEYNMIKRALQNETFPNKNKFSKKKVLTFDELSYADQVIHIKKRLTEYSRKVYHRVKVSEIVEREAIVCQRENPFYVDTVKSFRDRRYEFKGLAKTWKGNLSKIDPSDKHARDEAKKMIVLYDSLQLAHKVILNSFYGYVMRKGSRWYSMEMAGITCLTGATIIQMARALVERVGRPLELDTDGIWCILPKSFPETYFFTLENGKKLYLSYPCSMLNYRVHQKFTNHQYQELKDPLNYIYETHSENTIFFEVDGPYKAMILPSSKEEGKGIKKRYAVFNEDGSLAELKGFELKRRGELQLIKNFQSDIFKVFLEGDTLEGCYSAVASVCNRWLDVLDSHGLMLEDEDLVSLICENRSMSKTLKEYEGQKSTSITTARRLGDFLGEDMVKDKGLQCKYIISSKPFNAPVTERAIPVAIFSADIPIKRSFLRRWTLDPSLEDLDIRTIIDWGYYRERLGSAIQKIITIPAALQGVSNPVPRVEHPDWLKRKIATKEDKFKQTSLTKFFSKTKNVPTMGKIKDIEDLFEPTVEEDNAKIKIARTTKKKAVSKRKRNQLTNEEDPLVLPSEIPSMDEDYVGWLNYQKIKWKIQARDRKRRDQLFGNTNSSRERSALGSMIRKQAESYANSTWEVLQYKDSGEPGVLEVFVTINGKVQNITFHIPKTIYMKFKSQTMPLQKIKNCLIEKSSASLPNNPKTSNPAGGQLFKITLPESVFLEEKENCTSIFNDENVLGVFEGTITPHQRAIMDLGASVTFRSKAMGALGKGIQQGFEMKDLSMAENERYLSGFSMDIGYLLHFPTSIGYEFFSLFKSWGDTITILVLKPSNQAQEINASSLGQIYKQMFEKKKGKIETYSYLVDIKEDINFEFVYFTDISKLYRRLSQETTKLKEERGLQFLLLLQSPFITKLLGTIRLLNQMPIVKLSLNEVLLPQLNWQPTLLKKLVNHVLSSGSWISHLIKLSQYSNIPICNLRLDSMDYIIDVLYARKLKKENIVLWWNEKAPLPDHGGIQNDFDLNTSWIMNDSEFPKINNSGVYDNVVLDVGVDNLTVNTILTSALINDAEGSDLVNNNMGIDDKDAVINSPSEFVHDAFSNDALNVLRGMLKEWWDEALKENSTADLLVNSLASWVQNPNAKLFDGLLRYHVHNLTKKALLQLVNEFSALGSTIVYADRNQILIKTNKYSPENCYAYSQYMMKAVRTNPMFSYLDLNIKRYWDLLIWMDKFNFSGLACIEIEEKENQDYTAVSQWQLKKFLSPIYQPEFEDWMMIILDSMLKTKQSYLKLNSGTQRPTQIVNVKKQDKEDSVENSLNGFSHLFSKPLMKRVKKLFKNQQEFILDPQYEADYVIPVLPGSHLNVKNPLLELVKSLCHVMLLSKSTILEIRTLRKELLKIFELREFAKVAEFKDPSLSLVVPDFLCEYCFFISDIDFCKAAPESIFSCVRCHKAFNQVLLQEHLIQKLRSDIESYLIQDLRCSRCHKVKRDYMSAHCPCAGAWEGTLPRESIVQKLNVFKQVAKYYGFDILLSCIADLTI
Sequence of Pol epsilon WT (holoenzyme) (P24482 whole entry, chain 2 of 4): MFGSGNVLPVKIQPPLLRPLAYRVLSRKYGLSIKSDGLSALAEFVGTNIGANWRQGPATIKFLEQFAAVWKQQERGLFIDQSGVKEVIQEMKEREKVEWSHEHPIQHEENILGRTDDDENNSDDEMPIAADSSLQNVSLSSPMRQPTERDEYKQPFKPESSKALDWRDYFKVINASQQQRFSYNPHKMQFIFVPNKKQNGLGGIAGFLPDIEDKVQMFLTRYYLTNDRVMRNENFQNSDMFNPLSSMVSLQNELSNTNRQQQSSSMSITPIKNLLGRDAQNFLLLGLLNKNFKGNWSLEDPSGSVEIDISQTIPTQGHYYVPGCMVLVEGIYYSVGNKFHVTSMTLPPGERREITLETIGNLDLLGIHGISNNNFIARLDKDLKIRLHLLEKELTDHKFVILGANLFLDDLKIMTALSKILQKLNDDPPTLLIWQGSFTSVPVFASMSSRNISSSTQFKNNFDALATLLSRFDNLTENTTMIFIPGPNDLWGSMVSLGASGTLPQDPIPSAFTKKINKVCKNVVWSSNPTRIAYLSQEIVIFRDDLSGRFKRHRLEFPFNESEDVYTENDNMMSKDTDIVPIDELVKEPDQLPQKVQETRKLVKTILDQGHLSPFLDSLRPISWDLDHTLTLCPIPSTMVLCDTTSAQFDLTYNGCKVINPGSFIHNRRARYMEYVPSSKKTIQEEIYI
Sequence of Pol epsilon WT (holoenzyme) (P27344 whole entry, chain 3 of 4): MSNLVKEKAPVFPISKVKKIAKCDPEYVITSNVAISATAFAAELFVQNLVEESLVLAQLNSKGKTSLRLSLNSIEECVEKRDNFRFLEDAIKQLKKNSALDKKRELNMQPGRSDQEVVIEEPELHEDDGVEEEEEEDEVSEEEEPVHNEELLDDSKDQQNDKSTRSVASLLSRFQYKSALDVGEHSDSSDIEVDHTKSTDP
Sequence of Pol epsilon WT (holoenzyme) (Q04603 whole entry, chain 4 of 4): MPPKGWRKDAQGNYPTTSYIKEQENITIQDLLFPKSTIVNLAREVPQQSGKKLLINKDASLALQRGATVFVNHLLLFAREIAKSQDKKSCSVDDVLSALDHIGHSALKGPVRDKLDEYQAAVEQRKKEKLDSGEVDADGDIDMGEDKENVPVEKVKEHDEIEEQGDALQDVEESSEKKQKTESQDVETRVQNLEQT

B1: P50/T80-1 (mixed)
DNA 1: TGGAACTTTGTACGTCCAAAATTGAATGACTTGGCCAACTACACTAAGTT
DNA 2: GGATTACGAAACGAAGCACATTAGCCCTGGAACTTAGTGTAGTTGGCCAAGTCATTCAATTTTGGACGTACAAAGTTCCA
binding result: binds

Reference: article PMC11920795
